Data published in US20240116985A1 (published 2024).
Starred links: 1 amine or outer side, 2 acyl side, 3 side chain; linkers in the order of their positions; H or OH if unused. Positions of bridges follow the written chain, without caps; N, C: chain ends. Non-standard residues stand in square brackets, D forms with d. Primed or numbered codes have the meaning given here. *: point of attachment. PyrS2(3) = (S)-3-amino-1-((pent-4-en-1-yloxy)carbonyl)pyrrolidine-3-carboxylic acid, stapling residue, C=CCCCOC(=O)N1CC[C@@](N[*:1])(C(=O)[*:2])C1; PyrS2″ = (S)-3-amino-1-((pent-4-en-1-yloxy)carbonyl)pyrrolidine-3-carboxylic acid (stapling residue), C=CCCCOC(=O)N1CC[C@@](N[*:1])(C(=O)[*:2])C1; B5(4) = 2,2-bis(4-pentenyl)glycine = 2-amino-2-(pent-4-en-1-yl)hept-6-enoic acid (stitching residue), C=CCCCC(CCCC=C)(N[*:1])C(=O)[*:2]; TfeGA = (S)-2-amino-3-((carboxymethyl)(2,2,2-trifluoroethyl)amino)propanoic acid, O=C([C@H](CN(CC(=O)[*:3])CC(F)(F)F)N[*:1])[*:2]; B5(3) = 2,2-bis(4-pentenyl)glycine (stitching residue), C=CCCCC(CCCC=C)(N[*:1])C(=O)[*:2]; B5″ = 2,2-bis(4-pentenyl)glycine, stitching residue, C=CCCCC(CCCC=C)(N[*:1])C(=O)[*:2]; Phe(2-Cl) = N[C@@H](Cc1ccccc1Cl)C(=O)O; Bta = N[C@@H](Cc1csc2ccccc12)C(=O)O; αAllylPro = C=CC[C@@]1(C(=O)O)CCCN1; tBuAla = CC(C)(C)C[C@H](N)C(=O)O; 3Thi = N[C@@H](Cc1ccsc1)C(=O)O; Leu(ol) = CC(C)C[C@H](N)CO; Alaol = C[C@@H](CO)N*

Experiments:
[1] = target: T1, beta-catenin (Homo sapiens (Human), UniProt P35222 2-781); assay: cell-based or functional assay
T1 sequence: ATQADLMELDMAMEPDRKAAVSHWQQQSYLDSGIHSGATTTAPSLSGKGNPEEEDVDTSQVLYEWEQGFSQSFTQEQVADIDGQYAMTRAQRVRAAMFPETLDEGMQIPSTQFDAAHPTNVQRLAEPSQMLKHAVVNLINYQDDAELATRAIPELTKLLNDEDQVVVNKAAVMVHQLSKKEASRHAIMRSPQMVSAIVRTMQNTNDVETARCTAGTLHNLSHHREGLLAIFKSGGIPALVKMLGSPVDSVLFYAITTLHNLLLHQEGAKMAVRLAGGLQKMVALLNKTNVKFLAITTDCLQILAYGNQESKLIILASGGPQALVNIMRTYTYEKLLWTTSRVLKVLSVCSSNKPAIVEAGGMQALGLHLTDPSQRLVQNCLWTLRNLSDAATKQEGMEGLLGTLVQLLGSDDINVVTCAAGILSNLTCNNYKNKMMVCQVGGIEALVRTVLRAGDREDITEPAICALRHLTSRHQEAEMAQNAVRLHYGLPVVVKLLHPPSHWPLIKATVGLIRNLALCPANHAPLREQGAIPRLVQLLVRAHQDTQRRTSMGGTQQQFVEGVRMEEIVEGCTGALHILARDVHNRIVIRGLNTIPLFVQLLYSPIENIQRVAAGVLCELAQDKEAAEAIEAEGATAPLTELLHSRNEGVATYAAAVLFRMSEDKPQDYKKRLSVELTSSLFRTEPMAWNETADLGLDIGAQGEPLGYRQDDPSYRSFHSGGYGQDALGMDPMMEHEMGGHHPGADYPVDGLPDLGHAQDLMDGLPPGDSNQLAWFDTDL

[2] = target: T2, beta-catenin (Homo sapiens (Human), UniProt P35222 1-781); assay: cell-based or functional assay
T2 sequence: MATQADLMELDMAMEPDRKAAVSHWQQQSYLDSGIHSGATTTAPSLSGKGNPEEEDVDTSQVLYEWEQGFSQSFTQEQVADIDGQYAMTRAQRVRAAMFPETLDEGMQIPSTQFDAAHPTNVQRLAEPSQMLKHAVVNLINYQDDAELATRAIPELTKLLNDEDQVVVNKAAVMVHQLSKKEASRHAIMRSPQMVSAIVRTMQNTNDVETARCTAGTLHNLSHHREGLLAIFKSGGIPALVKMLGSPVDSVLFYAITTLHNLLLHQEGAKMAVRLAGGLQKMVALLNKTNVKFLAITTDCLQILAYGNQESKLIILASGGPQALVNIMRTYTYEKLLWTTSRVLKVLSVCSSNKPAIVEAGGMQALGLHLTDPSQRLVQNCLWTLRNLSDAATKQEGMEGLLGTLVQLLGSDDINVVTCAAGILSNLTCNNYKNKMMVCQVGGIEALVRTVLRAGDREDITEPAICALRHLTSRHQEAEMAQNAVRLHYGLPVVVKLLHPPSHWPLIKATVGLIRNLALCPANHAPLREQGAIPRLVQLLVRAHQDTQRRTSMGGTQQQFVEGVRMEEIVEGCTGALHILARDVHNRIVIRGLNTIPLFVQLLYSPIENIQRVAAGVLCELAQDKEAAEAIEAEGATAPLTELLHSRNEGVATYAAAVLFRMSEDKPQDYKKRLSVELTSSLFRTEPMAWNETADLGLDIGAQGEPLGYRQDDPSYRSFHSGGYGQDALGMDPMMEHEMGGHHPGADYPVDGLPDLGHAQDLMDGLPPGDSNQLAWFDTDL

DLD1 TCF c2 BrightGlo % Inhibition (TCF/LEF luciferase reporter; 0.625 uM by plate map, replicate 1) [1] [%] | DLD1 TCF c2 BrightGlo % Inhibition (TCF/LEF luciferase reporter; 0.625 uM by plate map, replicate 2) [1] [%] | DLD1 TCF c2 BrightGlo % Inhibition, 0.625 uM, replicate 1 [2] [%] | DLD1 TCF c2 BrightGlo % Inhibition, 0.625 uM, replicate 2 [2] [%] | DLD1 TCF c2 BrightGlo % Inhibition, 0.625 uM, replicate 3 [2] [%] | DLD1 TCF c2 BrightGlo % Inhibition, 1.25 uM, replicate 1 [2] [%] | DLD1 TCF c2 BrightGlo % Inhibition, 1.25 uM, replicate 2 [2] [%] | DLD1 TCF c2 BrightGlo % Inhibition, 1.25 uM, replicate 3 [2] [%] | DLD1 TCF c2 BrightGlo % Inhibition, 2.5 uM, replicate 1 [2] [%] | DLD1 TCF c2 BrightGlo % Inhibition, 2.5 uM, replicate 2 [2] [%] | DLD1 TCF c2 BrightGlo % Inhibition, 2.5 uM, replicate 3 [2] [%] | DLD1 TCF c2 BrightGlo % Inhibition, 5 uM, replicate 1 [2] [%] | DLD1 TCF c2 BrightGlo % Inhibition, 5 uM, replicate 2 [2] [%] | DLD1 TCF c2 BrightGlo % Inhibition, 5 uM, replicate 3 [2] [%] | DLD1 TCF c2 BrightGlo % Inhibition, 10 uM, replicate 1 [2] [%] | DLD1 TCF c2 BrightGlo % Inhibition, 10 uM, replicate 2 [2] [%] | DLD1 TCF c2 BrightGlo % Inhibition, 10 uM, replicate 3 [2] [%] | DLD1 TCF c2 BrightGlo % Inhibition, 20 uM, replicate 1 [2] [%] | DLD1 TCF c2 BrightGlo % Inhibition, 20 uM, replicate 2 [2] [%] | DLD1 TCF c2 BrightGlo % Inhibition, 20 uM, replicate 3 [2] [%] | further results | Binder
9.2 | 7.1 |  |  |  |  |  |  |  |  |  |  |  |  |  |  |  |  |  |  | DLD1 TCF c2 BrightGlo % Inhibition (TCF/LEF luciferase reporter; 0.625 uM by plate map, replicate 3) [1]: 11.5%; DLD1 TCF c2 BrightGlo % Inhibition (TCF/LEF luciferase reporter; 1.25 uM by plate map, replicate 1) [1]: 0.8%; DLD1 TCF c2 BrightGlo % Inhibition (TCF/LEF luciferase reporter; 1.25 uM by plate map, replicate 2) [1]: 2.4%; DLD1 TCF c2 BrightGlo % Inhibition (TCF/LEF luciferase reporter; 1.25 uM by plate map, replicate 3) [1]: 5.4%; DLD1 TCF c2 BrightGlo % Inhibition (TCF/LEF luciferase reporter; 2.5 uM by plate map, replicate 1) [1]: 4.5%; DLD1 TCF c2 BrightGlo % Inhibition (TCF/LEF luciferase reporter; 2.5 uM by plate map, replicate 2) [1]: 7.9%; DLD1 TCF c2 BrightGlo % Inhibition (TCF/LEF luciferase reporter; 2.5 uM by plate map, replicate 3) [1]: 15.2%; DLD1 TCF c2 BrightGlo % Inhibition (TCF/LEF luciferase reporter; 5 uM by plate map, replicate 1) [1]: 17.5%; DLD1 TCF c2 BrightGlo % Inhibition (TCF/LEF luciferase reporter; 5 uM by plate map, replicate 2) [1]: 23.8%; DLD1 TCF c2 BrightGlo % Inhibition (TCF/LEF luciferase reporter; 5 uM by plate map, replicate 3) [1]: 31%; DLD1 TCF c2 BrightGlo % Inhibition (TCF/LEF luciferase reporter; 10 uM by plate map, replicate 1) [1]: 45.6%; DLD1 TCF c2 BrightGlo % Inhibition (TCF/LEF luciferase reporter; 10 uM by plate map, replicate 2) [1]: 49.8%; DLD1 TCF c2 BrightGlo % Inhibition (TCF/LEF luciferase reporter; 10 uM by plate map, replicate 3) [1]: 55.3%; DLD1 TCF c2 BrightGlo % Inhibition (TCF/LEF luciferase reporter; 20 uM by plate map, replicate 1) [1]: 67.2%; DLD1 TCF c2 BrightGlo % Inhibition (TCF/LEF luciferase reporter; 20 uM by plate map, replicate 2) [1]: 69.3%; DLD1 TCF c2 BrightGlo % Inhibition (TCF/LEF luciferase reporter; 20 uM by plate map, replicate 3) [1]: 72.3% | Ac-[αAllylPro]D[tBuAla][B5(3)]DDAAFN[PyrS2″][Phe(2-Cl)][Bta]-Alaol (staple 1-4, 4-11) [I-1081]
 |  | -1.5 | 9.3 | 4.5 | -7 | -2.8 | 6.1 | -8 | -7.6 | -5 | -6.7 | -6.7 | -0.7 | -3.6 | -4.8 | -7.4 | -1.2 | 7.5 | 3.5 |  | Ac-[αAllylPro]D[tBuAla][B5(3)][3Thi][TfeGA]AAFN[PyrS2″]D[Bta]Q-NH2 (staple 1-4, 4-11) [I-1001]
 |  | 14.5 | 18.6 | 9.3 | 12.9 | 16.9 | 5.5 | 12.9 | 17.4 | 11.9 | 28.2 | 45.2 | 44.6 | 56.8 | 70.2 | 65.6 | 75.7 | 81.9 | 78.7 |  | Ac-[αAllylPro]D[tBuAla][B5″]D[TfeGA]AAFN[PyrS2(3)][3Thi][Bta]Q-NH2 (staple 1-4, 4-11) [I-762]
20.2 | 13.7 |  |  |  |  |  |  |  |  |  |  |  |  |  |  |  |  |  |  | DLD1 TCF c2 BrightGlo % Inhibition (TCF/LEF luciferase reporter; 0.625 uM by plate map, replicate 3) [1]: 15.3%; DLD1 TCF c2 BrightGlo % Inhibition (TCF/LEF luciferase reporter; 1.25 uM by plate map, replicate 1) [1]: 16%; DLD1 TCF c2 BrightGlo % Inhibition (TCF/LEF luciferase reporter; 1.25 uM by plate map, replicate 2) [1]: 13.8%; DLD1 TCF c2 BrightGlo % Inhibition (TCF/LEF luciferase reporter; 1.25 uM by plate map, replicate 3) [1]: 12.3%; DLD1 TCF c2 BrightGlo % Inhibition (TCF/LEF luciferase reporter; 2.5 uM by plate map, replicate 1) [1]: 14.6%; DLD1 TCF c2 BrightGlo % Inhibition (TCF/LEF luciferase reporter; 2.5 uM by plate map, replicate 2) [1]: 19.8%; DLD1 TCF c2 BrightGlo % Inhibition (TCF/LEF luciferase reporter; 2.5 uM by plate map, replicate 3) [1]: 7.9%; DLD1 TCF c2 BrightGlo % Inhibition (TCF/LEF luciferase reporter; 5 uM by plate map, replicate 1) [1]: 24.9%; DLD1 TCF c2 BrightGlo % Inhibition (TCF/LEF luciferase reporter; 5 uM by plate map, replicate 2) [1]: 31%; DLD1 TCF c2 BrightGlo % Inhibition (TCF/LEF luciferase reporter; 5 uM by plate map, replicate 3) [1]: 24.4%; DLD1 TCF c2 BrightGlo % Inhibition (TCF/LEF luciferase reporter; 10 uM by plate map, replicate 1) [1]: 42.4%; DLD1 TCF c2 BrightGlo % Inhibition (TCF/LEF luciferase reporter; 10 uM by plate map, replicate 2) [1]: 42.2%; DLD1 TCF c2 BrightGlo % Inhibition (TCF/LEF luciferase reporter; 10 uM by plate map, replicate 3) [1]: 38.1%; DLD1 TCF c2 BrightGlo % Inhibition (TCF/LEF luciferase reporter; 20 uM by plate map, replicate 1) [1]: 51.4%; DLD1 TCF c2 BrightGlo % Inhibition (TCF/LEF luciferase reporter; 20 uM by plate map, replicate 2) [1]: 56.9%; DLD1 TCF c2 BrightGlo % Inhibition (TCF/LEF luciferase reporter; 20 uM by plate map, replicate 3) [1]: 51.8% | Ac-[αAllylPro]D[tBuAla][B5(4)]DDAAFN[PyrS2″][Phe(2-Cl)][Bta][Leu(ol)] (staple 1-4, 4-11) [I-1080]
 |  | 11 | 10.7 | 15.5 | 5.7 | 22.3 | 21.2 | 13.3 | 28.8 | 33.4 | 32 | 57.8 | 62 | 61.5 | 72 | 76.2 | 78.1 | 81.3 | 81.9 |  | Ac-[αAllylPro]D[tBuAla][B5(3)]D[TfeGA]AAFF[PyrS2″]F[Bta]Q-NH2 (staple 1-4, 4-11) [I-988]
